{"source": "paper PMC7696373", "biological_target": "isoform CBd of the basic phospholipase A2 (PLA2) subunit of crotoxin (Crotalus durissus terrificus)", "assay": "crystal structure", "data": [{"substance": "isoform CBd of the basic phospholipase A2 (PLA2) subunit of crotoxin (enzyme)", "values": [{"measurement": "stoichiometry N", "result": 4}]}]}
